Source: US6191256A, “Recombinant factor VIII binding peptides” (Bayer Corporation, priority 1998, dated 2001)
Blank lines part the entries; values can stand above or below the substance they belong to.

How the values were obtained:
[1] = target: T1, rFVIII (Homo sapiens, UniProt P00451); experiment: confirmatory binding assay in filtration plate format using 14C-rFVIII; conditions: for 0.5M CaCl2 % total / 2% acetic acid % total / 2% acetic acid dpm / 0.5M CaCl2 dpm: 5 mg beads; for 0.5M CaCl2 dpm: 5° C.; for beads % total / beads dpm: remaining on beads after washes
Description: Confirmatory binding assays were performed in a filtration plate format using individual peptide sequences synthesized directly onto the TOYOPEARL AF amino 650 M resin, at a final substitution density of 0.1 mmole/g resin. A slurry of each individual peptide sequence was prepared using deionized water. A 100 μL volume of beads (corresponding to 5 mg) was loaded into each well of the filtration plate (MULTISCREEN Assay System, Millipore, Bedford, Mass.), in triplicate for each peptide sequence. Beads were washed with 20% ethanol and incubated overnight with equilibration buffer (20 mM imidazole, 10 mM
CaCl2, 0.105 M NaCl, pH 6.9). A 100 μL aliquot of ^14 C-rFVIII diluted in neat PPF to a final concentration of 20-30 nM was loaded into each well and incubated for 1 hour at 5° C. Filtrate (unbound ^14 C-rFVIII) was collected into a microtiter plate and transferred to liquid scintillation vials for dpm counting. Beads were washed sequentially with: 100 μL of equilibration buffer for 15 minutes, 200 μL of 0.5 M CaCl2 (in equilibration buffer), 200 μL of 1.0 M CaCl2 (in equilibration buffer), and 200 uL of 2% by volume glacial acetic acid in water, for 1 hour each at 5° C. Scintillation counting on the unbound ^14 C-rFVIII (plus equilibration buffer wash), salt and acid washes, as well as on the beads was then performed and the overall mass balance calculated.
Beads presenting the appropriate peptide sequence on the surface were placed in the filtration plate wells and incubated sequentially with equilibration buffer, ^14 C-rFVIII in PPF, equilibration buffer, 0.5 M CaCl2 wash, 1.0 M CaCl2 wash and 2% acetic acid wash. After each incubation, filtrate was collected in microtiter plates, and dpm counted on each
In Table 3, the ^14 C-rFVIII was loaded at 20 nM (in PPF) and the radiolabeling yield was at 3.0×10^15 dpm/mole. In Table 4, the ^14 C-rFVIII was loaded at 30 nM (in PPF) and the radiolabeling yield was at 5.0×10^15 dpm/mole.

[2] = target: T1, rFVIII; experiment: column format binding assay, rFVIII mass per fraction by sandwich capture ELISA for the light chain; conditions: for Flow through ng: 10,000 ng rFVIII in 1:10 PPF injected, 5° C.; for ELISA results % total: Table 9, 0.5M CaCl2 fraction
Description: (§1) Immunoassay on rFVIII using a sandwich capture ELISA for the light chain and activity assay using a chromogenic substrate (COATEST Factor VIII kit from diaPharma, Franklin, Ohio) were performed on a BIOMEK® automated liquid handling system from Beckman Instruments (Brea, Calif.). The monoclonal antibody for rFVIII light chain (known as C7F7), the ELISA assay standard (lot A70K019), and the control for the activity assay (lot A70A001 @ 140 IU/mL) were from the Bayer Corporation (Berkeley, Calif.). The standard for the activity assay was at 11.2 IU/mL (Bayer, Clayton, N.C.), calibrated against the MEGA 1 standard, which is a working standard used by American manufacturers for measuring factor VIII activity (21).
(§2) Additional confirmatory binding assay and performance of the discovered binding peptides in terms of total rFVIII and activity recovery was performed in a column chromatographic format on a microbore HPLC. The resins were packed into 0.4×5 cm columns (Thomson, Springfield, Va.) and tested on the MICHROM HPLC system (Michrom BioResources, Auburn, Calif.). The elution program for the trials utilized the following method. The column was pre-equilibrated with equilibration buffer (as above). A 1 mL aliquot of 1:10 PPF followed by 1 mL of rFVIII (10,000 ng) in 1:10 PPF were injected and allowed sufficient time to flow through the column using equilibration buffer. The column was then washed with step elutions of 0.5 M and 1.0 M CaCl2 in equilibration buffer. The column was exposed to equilibration buffer. Remaining protein was eluted with 2% by volume glacial acetic acid in water. Columns were kept at 5° C. during the chromatographic runs. For each 1 mL injection (equilibration buffer, 1:10 PPF and 10,000 ng rFVIII in 1:10 PPF), the chromatographic cycle was run for 45 minutes (injection, flow through, 0.5 M CaCl2, 1.0 M CaCl2, equilibration buffer, 2% acetic acid, equilibration buffer).
(§3) A Gilson FC204 fraction collector at the HPLC outlet collected individual eluates for further analysis. Each collection tube had 100 μL hSA added to it to stabilize the rFVIII. Fractions collected from the 2% acetic acid eluates were neutralized with 2 M Tris, pH 10.5 to bring the pH to neutrality. The fractions were analyzed for total protein by the integration of the absorbance at 280 nm, for rFVIII by immunoassay (sandwich capture ELISA), and for rFVIII activity by a chromogenic substrate assay.
Tables 5 and 6 present the results from the additional confirmatory binding assays using the column format. The chromatography method was run by injecting the samples at a flow rate of 865 μL/min (413 cm/hr). In order to provide a 10 minute residence time of sample in the column the flow was decreased to 17 μL/min (10 cm/hr) upon injection.
Following the incubation, the flow was set at 865 μL/min (413 cm/hr) for the step clutions of 0.5 M CaCl2, 1.0 M CaCl2, and 2% acetic acid. Results are expressed in terms of the total mass of rFVIII in each fraction, as determined by the sandwich capture ELISA assay for the rFVIII light chain. […] A control using a non-binding peptide sequence (IGF) is also shown for comparison--in this case, 95% of the rFVIII loaded to the column was collected in the flow through fraction. Additional controls with no

[3] = target: T1, rFVIII; experiment: rFVIII activity recovery from peptide columns by chromogenic substrate assay (COATEST); assay type: biochemical; conditions: for 0.5M CaCl2 % total: activity recovery; for Flow through IU: rFVIII activity in fraction; for Activity results % total: Table 9, 0.5M CaCl2 fraction
Description: as §1, §2, §3
Tables 7 and 8 list the sequences for which activity recovery was determined by a chromogenic substrate assay (COASTEST kit, diaPharma, Franklin, Ohio). Chromatographc conditions are the same as described above for the results from Tables 5 and 6. It can be

[4] = Table 4, 14C-rFVIII 30 nM in PPF
[5] = Table 4, 14C-rFVIII 30 nM in PPF, 5.0 × 10^15 dpm/mole
[6] = Table 3, 14C-rFVIII 20 nM in PPF

T1 sequence (P00451 20-2351): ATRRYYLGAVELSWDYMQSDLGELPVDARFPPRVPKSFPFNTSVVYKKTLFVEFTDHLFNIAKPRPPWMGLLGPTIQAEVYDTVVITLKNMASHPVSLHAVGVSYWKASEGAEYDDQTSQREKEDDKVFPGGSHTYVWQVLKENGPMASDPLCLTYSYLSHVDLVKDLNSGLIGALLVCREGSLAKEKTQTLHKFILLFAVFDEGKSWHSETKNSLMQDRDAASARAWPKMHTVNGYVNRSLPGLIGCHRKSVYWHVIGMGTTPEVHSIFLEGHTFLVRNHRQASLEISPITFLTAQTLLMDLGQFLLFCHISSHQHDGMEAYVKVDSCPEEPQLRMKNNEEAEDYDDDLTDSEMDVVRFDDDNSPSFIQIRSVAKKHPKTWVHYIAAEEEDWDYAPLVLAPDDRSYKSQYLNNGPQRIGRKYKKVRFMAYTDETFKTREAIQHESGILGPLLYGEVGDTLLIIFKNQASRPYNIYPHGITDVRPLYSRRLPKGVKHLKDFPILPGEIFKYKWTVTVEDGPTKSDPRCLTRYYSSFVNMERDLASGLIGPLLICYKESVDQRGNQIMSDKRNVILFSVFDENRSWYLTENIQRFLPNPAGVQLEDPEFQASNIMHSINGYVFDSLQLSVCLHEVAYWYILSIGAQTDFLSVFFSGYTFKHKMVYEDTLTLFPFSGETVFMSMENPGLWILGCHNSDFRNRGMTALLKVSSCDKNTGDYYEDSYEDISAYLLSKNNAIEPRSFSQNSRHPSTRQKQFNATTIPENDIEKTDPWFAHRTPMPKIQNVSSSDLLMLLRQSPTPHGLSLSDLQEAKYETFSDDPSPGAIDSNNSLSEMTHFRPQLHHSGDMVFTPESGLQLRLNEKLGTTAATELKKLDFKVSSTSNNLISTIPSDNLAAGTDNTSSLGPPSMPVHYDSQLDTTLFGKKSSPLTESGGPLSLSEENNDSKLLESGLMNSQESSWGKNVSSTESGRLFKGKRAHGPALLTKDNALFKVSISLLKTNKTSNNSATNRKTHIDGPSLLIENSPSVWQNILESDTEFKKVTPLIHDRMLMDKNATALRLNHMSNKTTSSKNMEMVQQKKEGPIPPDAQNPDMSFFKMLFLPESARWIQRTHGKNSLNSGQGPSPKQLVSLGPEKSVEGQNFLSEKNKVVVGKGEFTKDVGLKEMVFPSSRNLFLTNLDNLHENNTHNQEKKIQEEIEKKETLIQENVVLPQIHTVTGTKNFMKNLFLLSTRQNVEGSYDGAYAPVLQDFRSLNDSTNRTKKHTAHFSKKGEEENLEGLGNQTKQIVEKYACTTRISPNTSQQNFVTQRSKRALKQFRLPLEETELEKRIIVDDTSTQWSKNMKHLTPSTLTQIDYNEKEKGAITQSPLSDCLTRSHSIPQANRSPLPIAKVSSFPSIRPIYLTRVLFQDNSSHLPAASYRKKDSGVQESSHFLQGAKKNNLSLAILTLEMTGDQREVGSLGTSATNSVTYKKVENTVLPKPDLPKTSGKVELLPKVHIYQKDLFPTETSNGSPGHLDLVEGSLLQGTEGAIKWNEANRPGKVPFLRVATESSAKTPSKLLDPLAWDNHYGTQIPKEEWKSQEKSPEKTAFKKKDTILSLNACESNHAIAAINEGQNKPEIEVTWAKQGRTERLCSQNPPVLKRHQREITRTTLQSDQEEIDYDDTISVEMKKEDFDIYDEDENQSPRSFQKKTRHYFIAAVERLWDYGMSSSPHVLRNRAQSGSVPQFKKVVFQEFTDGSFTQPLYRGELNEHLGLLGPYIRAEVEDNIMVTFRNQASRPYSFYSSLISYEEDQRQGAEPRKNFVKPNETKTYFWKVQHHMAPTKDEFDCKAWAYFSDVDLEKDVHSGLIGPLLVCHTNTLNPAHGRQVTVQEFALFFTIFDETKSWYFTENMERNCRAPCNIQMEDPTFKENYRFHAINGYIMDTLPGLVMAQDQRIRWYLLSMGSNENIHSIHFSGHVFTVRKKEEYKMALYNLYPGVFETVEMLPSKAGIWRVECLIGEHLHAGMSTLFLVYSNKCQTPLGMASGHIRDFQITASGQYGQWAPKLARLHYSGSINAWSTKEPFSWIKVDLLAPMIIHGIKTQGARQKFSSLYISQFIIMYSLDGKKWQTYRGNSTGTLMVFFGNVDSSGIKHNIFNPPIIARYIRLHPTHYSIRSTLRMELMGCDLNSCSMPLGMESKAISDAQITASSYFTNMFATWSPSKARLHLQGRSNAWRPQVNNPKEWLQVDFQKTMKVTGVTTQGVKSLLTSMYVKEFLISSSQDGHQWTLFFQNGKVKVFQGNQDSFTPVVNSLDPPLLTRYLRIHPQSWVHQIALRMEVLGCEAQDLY
T1 sequence (P00451 1668-2351 limits assumed): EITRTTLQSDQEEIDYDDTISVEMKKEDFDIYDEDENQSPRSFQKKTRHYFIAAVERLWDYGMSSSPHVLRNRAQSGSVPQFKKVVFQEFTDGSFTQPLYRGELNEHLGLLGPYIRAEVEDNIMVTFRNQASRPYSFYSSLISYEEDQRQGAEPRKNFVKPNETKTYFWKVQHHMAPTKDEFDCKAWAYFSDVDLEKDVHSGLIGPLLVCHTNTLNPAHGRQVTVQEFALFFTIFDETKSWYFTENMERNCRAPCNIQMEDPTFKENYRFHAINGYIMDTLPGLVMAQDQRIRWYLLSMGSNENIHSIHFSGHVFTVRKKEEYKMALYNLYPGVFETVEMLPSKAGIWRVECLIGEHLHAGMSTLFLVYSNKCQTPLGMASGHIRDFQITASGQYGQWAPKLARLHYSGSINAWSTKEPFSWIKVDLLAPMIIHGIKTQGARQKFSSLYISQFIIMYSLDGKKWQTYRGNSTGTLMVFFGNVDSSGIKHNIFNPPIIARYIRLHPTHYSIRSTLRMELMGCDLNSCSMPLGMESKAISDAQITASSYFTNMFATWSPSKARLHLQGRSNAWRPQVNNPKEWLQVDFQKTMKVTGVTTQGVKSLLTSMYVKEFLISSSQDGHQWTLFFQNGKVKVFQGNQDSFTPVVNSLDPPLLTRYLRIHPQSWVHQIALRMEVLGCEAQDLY

Total dpm ([1]; Table 4, 14C-rFVIII 30 nM): 3884 dpm
0.5M CaCl2 % total [1, 4]: 12%
2% acetic acid % total [1, 4]: 54%
2% acetic acid dpm [1, 4]: 2099 dpm
0.5M CaCl2 dpm [1, 5]: 485 dpm
beads % total ([1]; Table 4, 14C-rFVIII 30 nM): 33%
beads dpm ([1]; Table 4, 14C-rFVIII 30 nM): 1300 dpm
0.5M CaCl2 ng ([2]; Table 6): 36 ng
0.5M CaCl2 % total ([2]; Table 6): 1%
2% acetic acid % total ([2]; Table 6): 95%
2% acetic acid ng ([2]; Table 6): 4719 ng
Flow through % total ([2]; Table 6): 0%
Total ng ([2]; Table 6): 4966 ng
Flow through ng ([2]; Table 6): 0 ng
0.5M CaCl2 IU ([3]; Table 8): 0.4 IU
2% acetic acid % total ([3]; Table 8): 45%
2% acetic acid IU ([3]; Table 8): 3.5 IU
Flow through % total ([3]; Table 8): 0%
Total IU ([3]; Table 8): 7.8 IU
0.5M CaCl2 % total ([3]; Table 8): 4%
Flow through IU ([3]; Table 8): 0.0 IU
Substance: 20 (WHHHRG) [compound 20]

Total dpm ([1]; Table 3, 14C-rFVIII 20 nM): 4091 dpm
0.5M CaCl2 % total [1, 6]: 86%
2% acetic acid % total [1, 6]: 10%
2% acetic acid dpm [1, 6]: 430 dpm
0.5M CaCl2 dpm ([1]; Table 3, 14C-rFVIII 20 nM in PPF, 3.0 × 10^15 DPM/mole): 3519 dpm
beads % total ([1]; Table 3, 14C-rFVIII 20 nM): 3%
beads dpm ([1]; Table 3, 14C-rFVIII 20 nM): 143 dpm
0.5M CaCl2 ng ([2]; Table 5): 5530 ng
0.5M CaCl2 % total ([2]; Table 5): 97%
2% acetic acid % total ([2]; Table 5): 2%
2% acetic acid ng ([2]; Table 5): 125 ng
Flow through % total ([2]; Table 5): 0%
Total ng ([2]; Table 5): 5680 ng
Flow through ng ([2]; Table 5): 25 ng
ELISA results % total [2]: 97%
0.5M CaCl2 IU ([3]; Table 7): 36.3 IU
2% acetic acid % total ([3]; Table 7): 3%
2% acetic acid IU ([3]; Table 7): 1.2 IU
Flow through % total ([3]; Table 7): 0%
Total IU ([3]; Table 7): 37.8 IU
0.5M CaCl2 % total ([3]; Table 7): 96%
Flow through IU ([3]; Table 7): 0.0 IU
Activity results % total [3]: 96%
Substance: 5 (LNWKYG) [compound 5]

Total dpm ([1]; Table 4, 14C-rFVIII 30 nM): 3658 dpm
0.5M CaCl2 % total [1, 4]: 93%
2% acetic acid % total [1, 4]: 5%
2% acetic acid dpm [1, 4]: 176 dpm
0.5M CaCl2 dpm [1, 5]: 3414 dpm
beads % total ([1]; Table 4, 14C-rFVIII 30 nM): 2%
beads dpm ([1]; Table 4, 14C-rFVIII 30 nM): 68 dpm
0.5M CaCl2 ng ([2]; Table 6): 7154 ng
0.5M CaCl2 % total ([2]; Table 6): 97%
2% acetic acid % total ([2]; Table 6): 2%
2% acetic acid ng ([2]; Table 6): 181 ng
Flow through % total ([2]; Table 6): 0%
Total ng ([2]; Table 6): 7403 ng
Flow through ng ([2]; Table 6): 0 ng
ELISA results % total [2]: 97%
0.5M CaCl2 IU ([3]; Table 8): 68.9 IU
2% acetic acid % total ([3]; Table 8): 0%
2% acetic acid IU ([3]; Table 8): 0.1 IU
Flow through % total ([3]; Table 8): 0%
Total IU ([3]; Table 8): 70.2 IU
0.5M CaCl2 % total ([3]; Table 8): 98%
Flow through IU ([3]; Table 8): 0.0 IU
Activity results % total [3]: 98%
Substance: 9 (FALPGR) [compound 9]

Total dpm ([1]; Table 4, 14C-rFVIII 30 nM): 2987 dpm
0.5M CaCl2 % total [1, 4]: 15%
2% acetic acid % total [1, 4]: 72%
2% acetic acid dpm [1, 4]: 2148 dpm
0.5M CaCl2 dpm [1, 5]: 457 dpm
beads % total ([1]; Table 4, 14C-rFVIII 30 nM): 13%
beads dpm ([1]; Table 4, 14C-rFVIII 30 nM): 382 dpm
0.5M CaCl2 ng ([2]; Table 6): 1075 ng
0.5M CaCl2 % total ([2]; Table 6): 25%
2% acetic acid % total ([2]; Table 6): 60%
2% acetic acid ng ([2]; Table 6): 2569 ng
Flow through % total ([2]; Table 6): 0%
Total ng ([2]; Table 6): 4283 ng
Flow through ng ([2]; Table 6): 0 ng
0.5M CaCl2 IU ([3]; Table 8): 9.9 IU
2% acetic acid % total ([3]; Table 8): 7%
2% acetic acid IU ([3]; Table 8): 1.4 IU
Flow through % total ([3]; Table 8): 2%
Total IU ([3]; Table 8): 19.5 IU
0.5M CaCl2 % total ([3]; Table 8): 51%
Flow through IU ([3]; Table 8): 0.5 IU
Substance: 19 (FHFGLQ) [compound 19]
